The record followed here is article PMC6294510.

Data set [1] addresses ARTD2FL W151A (Homo sapiens, UniProt Q9UGN5 1-583, W151A). Kind of data set: SPR. A general note: In SPR one partner is held on a chip, and binding of the other changes the refractive index at the surface.
Data set [2] has as its target ARTD2FL K179A (Homo sapiens, UniProt Q9UGN5 1-583, K179A). In words: SPR.
The target of data set [3] is ARTD2FL R153A (Homo sapiens, UniProt Q9UGN5 1-583, R153A). In words: SPR.
Data set [4] has as its target ARTD2FL N127A (Homo sapiens, UniProt Q9UGN5 1-583, N127A). Kind of data set: SPR.
Data set [5] has as its target ARTD2FL K183A (Homo sapiens, UniProt Q9UGN5 1-583, K183A). Kind of data set: SPR.
The target of data set [6] is ARTD2FL Y201F (Homo sapiens, UniProt Q9UGN5 1-583, Y201F). Kind of data set: SPR.
Chain of ARTD2FL Y201F (Q9UGN5 whole entry Y201F): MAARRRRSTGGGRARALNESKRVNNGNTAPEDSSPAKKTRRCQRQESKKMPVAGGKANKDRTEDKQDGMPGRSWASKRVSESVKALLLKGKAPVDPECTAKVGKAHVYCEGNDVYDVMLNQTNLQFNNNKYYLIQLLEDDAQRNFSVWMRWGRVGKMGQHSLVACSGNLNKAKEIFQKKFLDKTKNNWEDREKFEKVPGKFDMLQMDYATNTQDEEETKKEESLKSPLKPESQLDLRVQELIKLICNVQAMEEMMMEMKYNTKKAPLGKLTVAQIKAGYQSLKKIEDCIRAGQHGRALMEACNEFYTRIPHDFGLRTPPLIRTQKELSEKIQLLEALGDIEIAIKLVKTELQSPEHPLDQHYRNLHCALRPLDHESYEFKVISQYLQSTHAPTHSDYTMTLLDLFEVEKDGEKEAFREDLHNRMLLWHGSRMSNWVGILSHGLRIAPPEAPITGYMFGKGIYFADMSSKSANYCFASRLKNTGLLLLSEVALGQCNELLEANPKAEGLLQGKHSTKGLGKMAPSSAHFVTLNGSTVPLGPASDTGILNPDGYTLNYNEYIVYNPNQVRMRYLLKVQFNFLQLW
For data set [7], the target named is T1, ARTD2WGR+CAT (Homo sapiens, UniProt Q9UGN5 90-583). In words: SEC-SLS.
T1 sequence (Q9UGN5 90-583): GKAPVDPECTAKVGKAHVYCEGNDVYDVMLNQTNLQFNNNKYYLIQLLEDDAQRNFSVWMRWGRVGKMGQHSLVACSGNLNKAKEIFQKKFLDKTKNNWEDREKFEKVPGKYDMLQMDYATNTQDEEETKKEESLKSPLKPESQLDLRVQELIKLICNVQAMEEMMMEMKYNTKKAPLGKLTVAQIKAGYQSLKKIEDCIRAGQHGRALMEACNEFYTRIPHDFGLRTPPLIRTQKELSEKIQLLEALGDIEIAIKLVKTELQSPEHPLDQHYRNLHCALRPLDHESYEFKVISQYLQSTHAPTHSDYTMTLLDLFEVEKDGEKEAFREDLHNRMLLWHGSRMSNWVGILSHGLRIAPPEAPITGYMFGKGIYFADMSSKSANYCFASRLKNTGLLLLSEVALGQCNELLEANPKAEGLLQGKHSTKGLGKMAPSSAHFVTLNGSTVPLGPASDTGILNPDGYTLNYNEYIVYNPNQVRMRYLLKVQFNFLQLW
Data set [8] has as its target T2, ARTD2FL WT (Homo sapiens, UniProt Q9UGN5 1-583). In words: ITC. (In general: Isothermal titration calorimetry measures the heat released or taken up as one component is titrated into another.)
Data set [9] has as its target T2, ARTD2FL WT. Kind of data set: EMSA. (A gel shift assay detects complexes by their altered migration in electrophoresis.)
In data set [10] the target is T3, ARTD2WGR (Homo sapiens, UniProt Q9UGN5 90-218). In words: X-ray crystallography.
T3 sequence (Q9UGN5 90-218): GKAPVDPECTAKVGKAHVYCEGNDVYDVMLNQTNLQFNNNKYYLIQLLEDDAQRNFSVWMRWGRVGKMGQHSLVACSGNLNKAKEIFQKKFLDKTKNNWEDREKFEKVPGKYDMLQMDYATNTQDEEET
The target in data set [11] is T3, ARTD2WGR. In words: X-ray crystallography. The source holds these as a separate data set.
Data set [12] concerns the target T3, ARTD2WGR. Kind of data set: X-ray crystallography. The source holds these as a separate data set.
Data set [13] addresses T1, ARTD2WGR+CAT. In words: SEC-SLS. This is another data set of the same source.
The target in data set [14] is T2, ARTD2FL WT. Kind of data set: SEC-SLS.

Like-named read-outs stand apart in the source and are kept apart here.

T2 sequence (Q9UGN5 whole entry): as the sequence (Q9UGN5 whole entry Y201F) above, with F201Y counted along it
Chain of ARTD2FL R153A (Q9UGN5 whole entry R153A): as the sequence (Q9UGN5 whole entry Y201F) above, with R153A, F201Y counted along it
Chain of ARTD2FL K183A (Q9UGN5 whole entry K183A): as the sequence (Q9UGN5 whole entry Y201F) above, with K183A, F201Y counted along it
Chain of ARTD2FL K179A (Q9UGN5 whole entry K179A): as the sequence (Q9UGN5 whole entry Y201F) above, with K179A, F201Y counted along it
Chain of ARTD2FL W151A (Q9UGN5 whole entry W151A): as the sequence (Q9UGN5 whole entry Y201F) above, with W151A, F201Y counted along it
Chain of ARTD2FL N127A (Q9UGN5 whole entry N127A): as the sequence (Q9UGN5 whole entry Y201F) above, with N127A, F201Y counted along it

B1: DNA-12 (dsDNA)
DNA 1: GCAGCATGGCGGAGTTCACA
DNA 2: TGTGAACTCCGCCATGCTGC
modifications: 5'-phosphate on forward strand
Regarding B1, the binding result in data set [1], in data set [2], in [3], in data set [4], in data set [5] and in [6] was “no binding” throughout. Turning to GGGTCTTTTGACCCTCGAGCTTTTGCTCGA (structured_DNA, 5'-phosphate) [DNA-1 nicked hairpin], the binding result in data set [7] and in [8] was “binds” in each case. Turning to GGAAGTTCTTTTGAACTTCCGCGAAGCTTTTGCTTCGC (structured_DNA, 5'-phosphate) [DNA-2 nicked dumbbell], in data set [9], the binding result is given as “binds”.

B2: DNA-6 (dsDNA)
DNA 1: GCCTAGCTACGTAGCTAGGC
DNA 2: GCCTAGCTACGTAGCTAGGC
With B2, the binding result in data set [10] was “binds”.

With GGAAGTTCTTTTGAACTTCC (structured_DNA) [DNA-3 blunt hairpin], in data set [8], the binding result was “binds”.

B3: DNA-5 (dsDNA)
DNA 1: GCCTATAGGC
DNA 2: GCCTATAGGC
modifications: 5'-phosphate on both strands
As for B3, the binding result in data set [11] is given as “binds”.

B4: DNA-9 (dsDNA)
DNA 1: CGGTCGCCTATAGGC
DNA 2: CGGTCGCCTATAGGC
modifications: 5'-phosphate on both strands
As to B4, in [12], the binding result is “binds”.

B5: DNA-13 (dsDNA)
DNA 1: GACGCAACCCGGAGAACACA
DNA 2: TGTGTTCTCCGGGTTGCGTC
modifications: 5'-phosphate on forward strand
As for B5, the binding result in data set [13] and in data set [14] was “binds” each time.
